# Laboratory results: patent US20230287095A1 (published 2023)
# Read-outs that look alike come from different tables or passages of the source.
# Assays:
# Assay in all cases: ELISA
# [1] = molecular target: T1, human pro-EMAPII (human, UniProt Q12904 1-312)
# T1 chain: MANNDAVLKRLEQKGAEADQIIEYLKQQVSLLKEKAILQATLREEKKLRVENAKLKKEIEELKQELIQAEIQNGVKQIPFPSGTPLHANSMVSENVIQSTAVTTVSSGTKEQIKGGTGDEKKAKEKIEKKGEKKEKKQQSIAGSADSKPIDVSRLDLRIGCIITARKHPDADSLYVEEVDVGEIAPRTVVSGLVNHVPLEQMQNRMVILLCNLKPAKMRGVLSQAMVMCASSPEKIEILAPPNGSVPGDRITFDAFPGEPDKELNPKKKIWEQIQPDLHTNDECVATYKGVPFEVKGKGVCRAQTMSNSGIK
# [2] = molecular target: T1, human pro-EMAPII
# [3] = molecular target: T1, human pro-EMAPII
# [4] = molecular target: T1, human pro-EMAPII
binder,measurement,setting,value
Humanized HC5 + LC2 (antibody) heavy: not shown light: DIVMTQSPLSLPVTPGEPASISCRSSKSLLHSSGKTYLNWYLQKPGQSPQLLIYWMSTRASGVPDRFSGSGSGTDFTLKISRVEAEDVGVYYCQQFLEYPLTFGQGTKLEIKRTVAAPSVFIFPPSDEQLKSGTASVVCLLNNFYPREAKVQWKVDNALQSGNSQESVTEQDSKDSTYSLSSTLTLSKADYEKHKVYACEVTHQGLSSPVTKSFNRGEC,EC50,[1],0.17 µg/mL
Humanized HC2 + LC4 (antibody) heavy: not shown light: DIQMTQSPLSLPVTPGEPASISCRSSKSLLHSSGKTYLNWYLQKPGQSPQLLIYWMSTRASGVPDRFSGSGSGTDFTLKISRVEAEDVGVYYCQQFLEYPLTFGGGTKVEIKRTVAAPSVFIFPPSDEQLKSGTASVVCLLNNFYPREAKVQWKVDNALQSGNSQESVTEQDSKDSTYSLSSTLTLSKADYEKHKVYACEVTHQGLSSPVTKSFNRGEC,EC50,[2],0.078 µg/mL
Humanized HC4 + LC3 (antibody) heavy: not shown light: DIVMTQSPLSLPVTPGEPASISCRSSKSLLHSSGKTYLNWYLQKPGQSPQLLIYWMSTRASGVPDRFSGSGSGTDFTLKISRVEAEDVGVYYCQQFLEYPLTFGGGTKVEIKRTVAAPSVFIFPPSDEQLKSGTASVVCLLNNFYPREAKVQWKVDNALQSGNSQESVTEQDSKDSTYSLSSTLTLSKADYEKHKVYACEVTHQGLSSPVTKSFNRGEC,EC50,[3],0.229 µg/mL
Humanized HC3 + LC2 (antibody) heavy: not shown light: DIVMTQSPLSLPVTPGEPASISCRSSKSLLHSSGKTYLNWYLQKPGQSPQLLIYWMSTRASGVPDRFSGSGSGTDFTLKISRVEAEDVGVYYCQQFLEYPLTFGQGTKLEIKRTVAAPSVFIFPPSDEQLKSGTASVVCLLNNFYPREAKVQWKVDNALQSGNSQESVTEQDSKDSTYSLSSTLTLSKADYEKHKVYACEVTHQGLSSPVTKSFNRGEC,EC50,[1],0.081 µg/mL
Humanized HC1 + LC3 (antibody) heavy: not shown light: DIVMTQSPLSLPVTPGEPASISCRSSKSLLHSSGKTYLNWYLQKPGQSPQLLIYWMSTRASGVPDRFSGSGSGTDFTLKISRVEAEDVGVYYCQQFLEYPLTFGGGTKVEIKRTVAAPSVFIFPPSDEQLKSGTASVVCLLNNFYPREAKVQWKVDNALQSGNSQESVTEQDSKDSTYSLSSTLTLSKADYEKHKVYACEVTHQGLSSPVTKSFNRGEC,EC50,[3],0.108 µg/mL
Humanized HC5 + LC3 (antibody) heavy: not shown light: DIVMTQSPLSLPVTPGEPASISCRSSKSLLHSSGKTYLNWYLQKPGQSPQLLIYWMSTRASGVPDRFSGSGSGTDFTLKISRVEAEDVGVYYCQQFLEYPLTFGGGTKVEIKRTVAAPSVFIFPPSDEQLKSGTASVVCLLNNFYPREAKVQWKVDNALQSGNSQESVTEQDSKDSTYSLSSTLTLSKADYEKHKVYACEVTHQGLSSPVTKSFNRGEC,EC50,[3],0.2 µg/mL
Humanized HC3 + LC3 (antibody) heavy: not shown light: DIVMTQSPLSLPVTPGEPASISCRSSKSLLHSSGKTYLNWYLQKPGQSPQLLIYWMSTRASGVPDRFSGSGSGTDFTLKISRVEAEDVGVYYCQQFLEYPLTFGGGTKVEIKRTVAAPSVFIFPPSDEQLKSGTASVVCLLNNFYPREAKVQWKVDNALQSGNSQESVTEQDSKDSTYSLSSTLTLSKADYEKHKVYACEVTHQGLSSPVTKSFNRGEC,EC50,[3],0.077 µg/mL
Humanized HC1 + LC2 (antibody) heavy: not shown light: DIVMTQSPLSLPVTPGEPASISCRSSKSLLHSSGKTYLNWYLQKPGQSPQLLIYWMSTRASGVPDRFSGSGSGTDFTLKISRVEAEDVGVYYCQQFLEYPLTFGQGTKLEIKRTVAAPSVFIFPPSDEQLKSGTASVVCLLNNFYPREAKVQWKVDNALQSGNSQESVTEQDSKDSTYSLSSTLTLSKADYEKHKVYACEVTHQGLSSPVTKSFNRGEC,EC50,[1],0.089 µg/mL
Humanized HC5 + LC4 (antibody) heavy: not shown light: DIQMTQSPLSLPVTPGEPASISCRSSKSLLHSSGKTYLNWYLQKPGQSPQLLIYWMSTRASGVPDRFSGSGSGTDFTLKISRVEAEDVGVYYCQQFLEYPLTFGGGTKVEIKRTVAAPSVFIFPPSDEQLKSGTASVVCLLNNFYPREAKVQWKVDNALQSGNSQESVTEQDSKDSTYSLSSTLTLSKADYEKHKVYACEVTHQGLSSPVTKSFNRGEC,EC50,[2],0.166 µg/mL
Humanized HC2 + LC3 (antibody) heavy: not shown light: DIVMTQSPLSLPVTPGEPASISCRSSKSLLHSSGKTYLNWYLQKPGQSPQLLIYWMSTRASGVPDRFSGSGSGTDFTLKISRVEAEDVGVYYCQQFLEYPLTFGGGTKVEIKRTVAAPSVFIFPPSDEQLKSGTASVVCLLNNFYPREAKVQWKVDNALQSGNSQESVTEQDSKDSTYSLSSTLTLSKADYEKHKVYACEVTHQGLSSPVTKSFNRGEC,EC50,[3],0.075 µg/mL
Humanized HC3 + LC4 (antibody) heavy: not shown light: DIQMTQSPLSLPVTPGEPASISCRSSKSLLHSSGKTYLNWYLQKPGQSPQLLIYWMSTRASGVPDRFSGSGSGTDFTLKISRVEAEDVGVYYCQQFLEYPLTFGGGTKVEIKRTVAAPSVFIFPPSDEQLKSGTASVVCLLNNFYPREAKVQWKVDNALQSGNSQESVTEQDSKDSTYSLSSTLTLSKADYEKHKVYACEVTHQGLSSPVTKSFNRGEC,EC50,[2],0.07 µg/mL
Humanized HC4 + LC2 (antibody) heavy: not shown light: DIVMTQSPLSLPVTPGEPASISCRSSKSLLHSSGKTYLNWYLQKPGQSPQLLIYWMSTRASGVPDRFSGSGSGTDFTLKISRVEAEDVGVYYCQQFLEYPLTFGQGTKLEIKRTVAAPSVFIFPPSDEQLKSGTASVVCLLNNFYPREAKVQWKVDNALQSGNSQESVTEQDSKDSTYSLSSTLTLSKADYEKHKVYACEVTHQGLSSPVTKSFNRGEC,EC50,[1],0.271 µg/mL
Humanized HC1 + LC4 (antibody) heavy: not shown light: DIQMTQSPLSLPVTPGEPASISCRSSKSLLHSSGKTYLNWYLQKPGQSPQLLIYWMSTRASGVPDRFSGSGSGTDFTLKISRVEAEDVGVYYCQQFLEYPLTFGGGTKVEIKRTVAAPSVFIFPPSDEQLKSGTASVVCLLNNFYPREAKVQWKVDNALQSGNSQESVTEQDSKDSTYSLSSTLTLSKADYEKHKVYACEVTHQGLSSPVTKSFNRGEC,EC50,[2],0.113 µg/mL
Humanized HC4 + LC4 (antibody) heavy: not shown light: DIQMTQSPLSLPVTPGEPASISCRSSKSLLHSSGKTYLNWYLQKPGQSPQLLIYWMSTRASGVPDRFSGSGSGTDFTLKISRVEAEDVGVYYCQQFLEYPLTFGGGTKVEIKRTVAAPSVFIFPPSDEQLKSGTASVVCLLNNFYPREAKVQWKVDNALQSGNSQESVTEQDSKDSTYSLSSTLTLSKADYEKHKVYACEVTHQGLSSPVTKSFNRGEC,EC50,[2],0.197 µg/mL
Humanized HC2 + LC2 (antibody) heavy: not shown light: DIVMTQSPLSLPVTPGEPASISCRSSKSLLHSSGKTYLNWYLQKPGQSPQLLIYWMSTRASGVPDRFSGSGSGTDFTLKISRVEAEDVGVYYCQQFLEYPLTFGQGTKLEIKRTVAAPSVFIFPPSDEQLKSGTASVVCLLNNFYPREAKVQWKVDNALQSGNSQESVTEQDSKDSTYSLSSTLTLSKADYEKHKVYACEVTHQGLSSPVTKSFNRGEC,EC50,[1],0.112 µg/mL
Humanized HC2 + LC1 (antibody) heavy: not shown light: DIVMTQSPLSLPVTPGEPASISCRSSKSLLHSSGKTYLNWYLQKPGQSPQLLIYWMSNRASGVPDRFSGSGSGTDFTLKISRVEAEDVGVYYCQQFLEYPLTFGQGTKLEIKRTVAAPSVFIFPPSDEQLKSGTASVVCLLNNFYPREAKVQWKVDNALQSGNSQESVTEQDSKDSTYSLSSTLTLSKADYEKHKVYACEVTHQGLSSPVTKSFNRGEC,EC50,[4],0.076 µg/mL
Humanized HC3 + LC1 (antibody) heavy: not shown light: DIVMTQSPLSLPVTPGEPASISCRSSKSLLHSSGKTYLNWYLQKPGQSPQLLIYWMSNRASGVPDRFSGSGSGTDFTLKISRVEAEDVGVYYCQQFLEYPLTFGQGTKLEIKRTVAAPSVFIFPPSDEQLKSGTASVVCLLNNFYPREAKVQWKVDNALQSGNSQESVTEQDSKDSTYSLSSTLTLSKADYEKHKVYACEVTHQGLSSPVTKSFNRGEC,EC50,[4],0.082 µg/mL
"Humanized HC5 + LC1 (antibody, V domains shown) VH: AVQLVESGGGLVQPGGSLKLSCAASGFTFSDAAMYWVRQASGKGLEWVARIRTKPNNYATYYAASVKGRFTISRDDSNSTAYLQMNSLKTEDTAVYYCTSWSYDFDYWGQGTLVTVSS VL: DIVMTQSPLSLPVTPGEPASISCRSSKSLLHSSGKTYLNWYLQKPGQSPQLLIYWMSNRASGVPDRFSGSGSGTDFTLKISRVEAEDVGVYYCQQFLEYPLTFGQGTKLEIKR",EC50,[4],0.163 µg/mL
"Humanized HC4 + LC1 (antibody, V domains shown) VH: EVQLVESGGGLVQPGGSLKLSCAASGFTFSDAAIYWVRQASGKGLEWVARIRTKPNNYATYYAASVKGRFTISRDDSNSTAYLQMNSLKTEDTAVYYCTSWSYDFDYWGQGTLVTVSS VL: DIVMTQSPLSLPVTPGEPASISCRSSKSLLHSSGKTYLNWYLQKPGQSPQLLIYWMSNRASGVPDRFSGSGSGTDFTLKISRVEAEDVGVYYCQQFLEYPLTFGQGTKLEIKR",EC50,[4],0.198 µg/mL
"Humanized HC1 + LC1 (antibody, V domains shown) VH: EVQLVESGGGLVQPGGSLKLSCAASGFTFSDAAMYWVRQASGKGLEWVGRIRTKPNNYATYYAASVKGRFTISRDDSKNTAYLQMNSLKTEDTAVYYCTSWSYDFDYWGQGTLVTVSS VL: DIVMTQSPLSLPVTPGEPASISCRSSKSLLHSSGKTYLNWYLQKPGQSPQLLIYWMSNRASGVPDRFSGSGSGTDFTLKISRVEAEDVGVYYCQQFLEYPLTFGQGTKLEIKR",EC50,[4],0.098 µg/mL
